Reference: paper PMC9482650, “Quantitative fragmentomics allow affinity mapping of interactomes” (Nature Communications, 2022)

Key:
Test in all cases: holdup assay
Parameters in all cases: key: below the threshold = too weak to quantify, mostly under pKd 3.1 to 4
DLG5_1, Q8TDM6 = biological target: DLG5_1, Q8TDM6
Inadl_10, Q8NI35 = biological target: Inadl_10, Q8NI35
TJP1_2, Q07157 = biological target: TJP1_2, Q07157
RHPN1, Q8TCX5 = biological target: T1, RHPN1, Q8TCX5
T1 sequence (Q8TCX5 508-602, limits assumed, looked up): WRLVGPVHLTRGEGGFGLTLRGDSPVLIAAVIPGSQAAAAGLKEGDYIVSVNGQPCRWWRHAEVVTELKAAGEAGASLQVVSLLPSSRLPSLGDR

TJP1_3, Q07157 = biological target: TJP1_3, Q07157
LDB3, O75112 = biological target: LDB3, O75112
MAGI2_3, Q86UL8 = biological target: MAGI2_3, Q86UL8
GRIP1_3, Q9Y3R0 = biological target: T2, GRIP1_3, Q9Y3R0
T2 sequence (Q9Y3R0 247-346, limits assumed, looked up): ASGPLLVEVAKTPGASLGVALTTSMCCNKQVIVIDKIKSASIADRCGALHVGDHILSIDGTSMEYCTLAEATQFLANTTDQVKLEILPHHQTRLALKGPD

CARD11, Q9BXL7 = biological target: T3, CARD11, Q9BXL7
T3 sequence (Q9BXL7 662-765, limits assumed, looked up): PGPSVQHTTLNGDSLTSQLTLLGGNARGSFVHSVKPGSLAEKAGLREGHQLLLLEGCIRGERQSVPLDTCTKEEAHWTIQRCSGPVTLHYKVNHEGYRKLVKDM

LRRC7, Q96NW7 = biological target: T4, LRRC7, Q96NW7
T4 sequence (Q96NW7 1440-1537, limits assumed, looked up): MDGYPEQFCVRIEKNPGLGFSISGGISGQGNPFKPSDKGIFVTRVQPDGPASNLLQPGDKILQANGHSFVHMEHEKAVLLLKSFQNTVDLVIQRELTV

ARHGEF11, O15085 = biological target: T5, ARHGEF11, O15085
T5 sequence (O15085 42-136, limits assumed, looked up): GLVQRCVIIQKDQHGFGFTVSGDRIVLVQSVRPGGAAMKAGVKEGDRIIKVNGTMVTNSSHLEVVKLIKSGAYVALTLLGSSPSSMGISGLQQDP

LNX2_3, Q8N448 = biological target: T6, LNX2_3, Q8N448
T6 sequence (Q8N448 463-564, limits assumed, looked up): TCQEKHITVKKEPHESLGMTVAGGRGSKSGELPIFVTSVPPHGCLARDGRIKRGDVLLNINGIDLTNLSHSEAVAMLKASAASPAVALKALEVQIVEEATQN

GRIP1_7, Q9Y3R0 = biological target: T7, GRIP1_7, Q9Y3R0
T7 sequence (Q9Y3R0 999-1096, limits assumed, looked up): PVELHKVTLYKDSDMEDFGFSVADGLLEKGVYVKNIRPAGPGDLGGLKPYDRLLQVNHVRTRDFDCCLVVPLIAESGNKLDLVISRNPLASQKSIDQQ

GRASP, Q7Z6J2 = biological target: GRASP, Q7Z6J2
IL16_1, Q14005 = biological target: IL16_1, Q14005
NHERF4_4, Q86UT5 = biological target: NHERF4_4, Q86UT5
SCRIB_1, Q14160 = biological target: SCRIB_1, Q14160
PDZRN4_1, Q6ZMN7 = biological target: PDZRN4_1, Q6ZMN7
DVL3, Q92997 = biological target: T8, DVL3, Q92997
T8 sequence (Q92997 244-331, limits assumed, looked up): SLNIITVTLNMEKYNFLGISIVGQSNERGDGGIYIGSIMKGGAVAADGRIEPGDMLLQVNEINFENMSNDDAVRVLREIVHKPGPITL

NHERF4_2, Q86UT5 = biological target: NHERF4_2, Q86UT5
GRIP2_5, Q9C0E4 = biological target: GRIP2_5, Q9C0E4
LNX1_1, Q8TBB1 = biological target: LNX1_1, Q8TBB1
MPDZ_12, O75970 = biological target: T9, MPDZ_12, O75970
T9 sequence (O75970 1857-1958, limits assumed, looked up): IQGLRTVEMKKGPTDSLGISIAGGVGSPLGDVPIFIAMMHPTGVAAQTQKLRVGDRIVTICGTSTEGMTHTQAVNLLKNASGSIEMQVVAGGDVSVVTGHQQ

LNX1_3, Q8TBB1 = biological target: LNX1_3, Q8TBB1
HTRA3, P83110 = biological target: T10, HTRA3, P83110
T10 sequence (P83110 354-453, limits assumed, looked up): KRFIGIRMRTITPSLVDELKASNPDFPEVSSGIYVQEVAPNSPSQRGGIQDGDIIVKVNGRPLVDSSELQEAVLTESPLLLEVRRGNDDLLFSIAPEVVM

MAGI1_2, Q96QZ7 = biological target: MAGI1_2, Q96QZ7
GIPC2, Q8TF65 = details: plain residues with an end cap or a label only (N-terminal biotin on a linker: ado-ado)
NHERF4_1, Q86UT5-2 = biological target: NHERF4_1, Q86UT5-2
[1] = plain residues with an end cap or a label only (N-terminal biotin on a linker: ado-ado)
[2] = modified: acetyl on K at position -1 from the C-terminal residue

PDZRN4_1, Q6ZMN7, sequence (Q6ZMN7 213-318): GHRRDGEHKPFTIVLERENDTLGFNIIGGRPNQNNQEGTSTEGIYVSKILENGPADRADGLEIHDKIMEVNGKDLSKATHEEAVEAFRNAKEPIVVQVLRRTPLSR
IL16_1, Q14005, sequence (Q14005 210-306): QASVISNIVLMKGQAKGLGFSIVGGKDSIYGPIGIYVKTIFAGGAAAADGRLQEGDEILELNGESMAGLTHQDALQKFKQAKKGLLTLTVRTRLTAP
MAGI2_3, Q86UL8, sequence (Q86UL8 600-682): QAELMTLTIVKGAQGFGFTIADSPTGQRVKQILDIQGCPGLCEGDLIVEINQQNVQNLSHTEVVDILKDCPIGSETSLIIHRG
Inadl_10, Q8NI35, sequence (Q8NI35 1673-1763): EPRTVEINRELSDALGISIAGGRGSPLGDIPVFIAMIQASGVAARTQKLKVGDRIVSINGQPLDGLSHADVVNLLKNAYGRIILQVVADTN
LDB3, O75112, sequence (O75112 1-94): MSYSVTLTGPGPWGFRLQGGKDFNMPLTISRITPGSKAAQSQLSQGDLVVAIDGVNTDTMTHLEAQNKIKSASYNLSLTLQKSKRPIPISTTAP
LNX1_1, Q8TBB1, sequence (Q8TBB1 261-371): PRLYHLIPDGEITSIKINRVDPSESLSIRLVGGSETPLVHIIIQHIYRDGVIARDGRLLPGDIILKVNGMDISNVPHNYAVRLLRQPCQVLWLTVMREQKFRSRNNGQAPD
GRIP2_5, Q9C0E4, sequence (Q9C0E4 544-642): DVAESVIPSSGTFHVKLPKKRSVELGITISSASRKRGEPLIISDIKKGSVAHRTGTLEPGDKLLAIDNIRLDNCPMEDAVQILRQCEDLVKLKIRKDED
NHERF4_2, Q86UT5, sequence (Q86UT5 220-308): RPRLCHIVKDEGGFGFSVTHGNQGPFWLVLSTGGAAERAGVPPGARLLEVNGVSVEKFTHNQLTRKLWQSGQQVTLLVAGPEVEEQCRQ
LNX1_3, Q8TBB1, sequence (Q8TBB1 500-596): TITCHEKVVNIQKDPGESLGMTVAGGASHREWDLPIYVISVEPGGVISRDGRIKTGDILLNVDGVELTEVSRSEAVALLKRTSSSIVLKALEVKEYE
DLG5_1, Q8TDM6, sequence (Q8TDM6 617-713): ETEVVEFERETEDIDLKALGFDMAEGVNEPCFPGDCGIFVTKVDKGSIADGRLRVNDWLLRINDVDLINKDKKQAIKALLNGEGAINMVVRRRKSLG
TJP1_2, Q07157, sequence (Q07157 181-274): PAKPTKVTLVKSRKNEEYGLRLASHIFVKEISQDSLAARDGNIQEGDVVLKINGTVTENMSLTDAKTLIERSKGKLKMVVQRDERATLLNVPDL
SCRIB_1, Q14160, sequence (Q14160 718-814): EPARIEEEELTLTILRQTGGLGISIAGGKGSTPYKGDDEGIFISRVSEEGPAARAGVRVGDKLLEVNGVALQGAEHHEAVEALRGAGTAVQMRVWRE
NHERF4_4, Q86UT5, sequence (Q86UT5 464-550): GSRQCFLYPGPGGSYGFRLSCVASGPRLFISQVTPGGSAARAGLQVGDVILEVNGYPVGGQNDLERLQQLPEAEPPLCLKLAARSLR
MAGI1_2, Q96QZ7, sequence (Q96QZ7 456-580): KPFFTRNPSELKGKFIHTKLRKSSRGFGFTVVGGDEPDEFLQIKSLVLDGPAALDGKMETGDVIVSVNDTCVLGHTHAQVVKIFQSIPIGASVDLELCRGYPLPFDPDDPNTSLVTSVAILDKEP
TJP1_3, Q07157, sequence (Q07157 416-512): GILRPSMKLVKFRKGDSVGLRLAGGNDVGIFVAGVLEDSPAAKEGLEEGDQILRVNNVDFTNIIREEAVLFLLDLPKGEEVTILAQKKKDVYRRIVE
GRASP, Q7Z6J2, sequence (Q7Z6J2 96-193): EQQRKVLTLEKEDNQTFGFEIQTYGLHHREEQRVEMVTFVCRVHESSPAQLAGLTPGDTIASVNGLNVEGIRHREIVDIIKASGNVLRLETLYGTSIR
GIPC2, Q8TF65, sequence (Q8TF65 112-203): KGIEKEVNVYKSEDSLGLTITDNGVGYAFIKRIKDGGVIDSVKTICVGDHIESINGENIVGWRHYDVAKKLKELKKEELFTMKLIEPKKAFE
NHERF4_1, Q86UT5-2, sequence (Q86UT5 other isoform, or with tags, fused parts or gaps): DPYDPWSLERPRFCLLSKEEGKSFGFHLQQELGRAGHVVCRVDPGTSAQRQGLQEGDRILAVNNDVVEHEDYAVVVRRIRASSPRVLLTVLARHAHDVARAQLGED

B1: NDE1, Q9NXR1;Q9NXR1-2 (peptide)
chain: KSTTRSSSSC
pKd (DLG5_1, Q8TDM6; [1]): below the threshold | pKd (Inadl_10, Q8NI35; [1]): below the threshold | pKd (TJP1_2, Q07157; [1]): below the threshold | pKd (RHPN1, Q8TCX5; [1]): below the threshold | pKd (TJP1_3, Q07157; [1]): below the threshold | pKd (LDB3, O75112; [1]): below the threshold | pKd (MAGI2_3, Q86UL8; [1]): below the threshold | pKd (GRIP1_3, Q9Y3R0; [1]): below the threshold | pKd (CARD11, Q9BXL7; [1]): below the threshold | pKd (LRRC7, Q96NW7; [1]): below the threshold | pKd (ARHGEF11, O15085; [1]): below the threshold | pKd (LNX2_3, Q8N448; [1]): below the threshold | pKd (GRIP1_7, Q9Y3R0; [1]): below the threshold | pKd (GRASP, Q7Z6J2; [1]): below the threshold | pKd (IL16_1, Q14005; [1]): below the threshold | pKd (NHERF4_4, Q86UT5; [1]): below the threshold | pKd (SCRIB_1, Q14160; [1]): below the threshold | pKd (PDZRN4_1, Q6ZMN7; [1]): below the threshold | pKd (DVL3, Q92997; [1]): below the threshold | pKd (NHERF4_2, Q86UT5; [1]): below the threshold | pKd (GRIP2_5, Q9C0E4; [1]): below the threshold | pKd (LNX1_1, Q8TBB1; [1]): below the threshold | pKd (MPDZ_12, O75970; [1]): below the threshold | pKd (LNX1_3, Q8TBB1; [1]): below the threshold

B2: LSM14A, Q8ND56;Q8ND56-2 (peptide)
chain: EYRKDNKVAA
pKd (DLG5_1, Q8TDM6; [1]): below the threshold | pKd (Inadl_10, Q8NI35; [1]): below the threshold | pKd (TJP1_2, Q07157; [1]): below the threshold | pKd (RHPN1, Q8TCX5; [1]): below the threshold | pKd (HTRA3, P83110; [1]): below the threshold | pKd (MAGI1_2, Q96QZ7; [1]): below the threshold | pKd (LDB3, O75112; [1]): below the threshold | pKd (MAGI2_3, Q86UL8; [1]): below the threshold | pKd (GRIP1_3, Q9Y3R0; [1]): below the threshold | pKd (CARD11, Q9BXL7; [1]): below the threshold | pKd (LRRC7, Q96NW7; [1]): below the threshold | pKd (ARHGEF11, O15085; [1]): below the threshold | pKd (LNX2_3, Q8N448; [1]): below the threshold | pKd (GRIP1_7, Q9Y3R0; [1]): below the threshold | pKd (GRASP, Q7Z6J2; [1]): below the threshold | pKd (IL16_1, Q14005; [1]): below the threshold | pKd (NHERF4_4, Q86UT5; [1]): below the threshold | pKd (SCRIB_1, Q14160; [1]): below the threshold | pKd (GIPC2, Q8TF65): below the threshold | pKd (PDZRN4_1, Q6ZMN7; [1]): below the threshold | pKd (DVL3, Q92997; [1]): below the threshold | pKd (NHERF4_2, Q86UT5; [1]): below the threshold | pKd (GRIP2_5, Q9C0E4; [1]): below the threshold | pKd (LNX1_3, Q8TBB1; [1]): below the threshold

B3: VAC14, Q08AM6 (peptide)
chain: GDHLDRRVVL
pKd (DLG5_1, Q8TDM6; [1]): below the threshold | pKd (Inadl_10, Q8NI35; [1]): below the threshold | pKd (TJP1_2, Q07157; [1]): below the threshold | pKd (RHPN1, Q8TCX5; [1]): below the threshold | pKd (HTRA3, P83110; [1]): below the threshold | pKd (TJP1_3, Q07157; [1]): below the threshold | pKd (MAGI1_2, Q96QZ7; [1]): 3.51 | pKd (LDB3, O75112; [1]): below the threshold | pKd (MAGI2_3, Q86UL8; [1]): 3.54 | pKd (GRIP1_3, Q9Y3R0; [1]): below the threshold | pKd (CARD11, Q9BXL7; [1]): below the threshold | pKd (LRRC7, Q96NW7; [1]): below the threshold | pKd (ARHGEF11, O15085; [1]): below the threshold | pKd (LNX2_3, Q8N448; [1]): below the threshold | pKd (GRIP1_7, Q9Y3R0; [1]): below the threshold | pKd (NHERF4_1, Q86UT5-2; [1]): 4.07 | pKd (GRASP, Q7Z6J2; [1]): below the threshold | pKd (IL16_1, Q14005; [1]): below the threshold | pKd (NHERF4_4, Q86UT5; [1]): 3.78 | pKd (SCRIB_1, Q14160; [1]): below the threshold | pKd (GIPC2, Q8TF65): below the threshold | pKd (PDZRN4_1, Q6ZMN7; [1]): below the threshold | pKd (DVL3, Q92997; [1]): below the threshold | pKd (NHERF4_2, Q86UT5; [1]): below the threshold | pKd (GRIP2_5, Q9C0E4; [1]): below the threshold | pKd (LNX1_1, Q8TBB1; [1]): below the threshold | pKd (MPDZ_12, O75970; [1]): 3.75 | pKd (LNX1_3, Q8TBB1; [1]): below the threshold

B4: PTEN_Ac, P60484 (peptide)
chain: DEDQHTQITKV
pKd (DLG5_1, Q8TDM6; [2]): below the threshold | pKd (Inadl_10, Q8NI35; [2]): below the threshold | pKd (TJP1_2, Q07157; [2]): below the threshold | pKd (RHPN1, Q8TCX5; [2]): 4.65 | pKd (HTRA3, P83110; [2]): below the threshold | pKd (TJP1_3, Q07157; [2]): below the threshold | pKd (MAGI1_2, Q96QZ7; [2]): 3.69 | pKd (LDB3, O75112; [2]): below the threshold | pKd (MAGI2_3, Q86UL8; [2]): 4.85 | pKd (GRIP1_3, Q9Y3R0; [2]): below the threshold | pKd (CARD11, Q9BXL7; [2]): below the threshold | pKd (LRRC7, Q96NW7; [2]): below the threshold | pKd (ARHGEF11, O15085; [2]): 5.16 | pKd (LNX2_3, Q8N448; [2]): below the threshold | pKd (GRIP1_7, Q9Y3R0; [2]): below the threshold | pKd (NHERF4_1, Q86UT5-2; [2]): below the threshold | pKd (GRASP, Q7Z6J2; [2]): 5.32 | pKd (IL16_1, Q14005; [2]): 3.84 | pKd (NHERF4_4, Q86UT5; [2]): below the threshold | pKd (SCRIB_1, Q14160; [2]): 5.23 | pKd (PDZRN4_1, Q6ZMN7; [2]): below the threshold | pKd (DVL3, Q92997; [2]): below the threshold | pKd (NHERF4_2, Q86UT5; [2]): below the threshold | pKd (GRIP2_5, Q9C0E4; [2]): below the threshold | pKd (LNX1_1, Q8TBB1; [2]): 3.61 | pKd (MPDZ_12, O75970; [2]): below the threshold | pKd (LNX1_3, Q8TBB1; [2]): below the threshold
